We go through 13 molecules from patent publication US20230365662A1.

For experiment [1], the target named is HRgpA-6H (Porphyromonas gingivalis) (UniProt P28784). Description: ELISA on coated HRgpA-6H (coating concentration not stated); secondary Anti-BSA (HRP). (An ELISA detects its analyte on a solid surface through an enzyme-linked reagent.)
The target is the same in experiment [2]. Kind of experiment: ELISA on coated HRgpA-6H (coating concentration not stated); secondary Goat Anti-Human IgG (H+L).
Experiment [3] has the same target. Description: ELISA on coated HRgpA-6H (coating concentration not stated); secondary Goat Anti-Human IgG, F(ab')2.
The target is the same in experiment [4]. Kind of experiment: ELISA on coated HRgpA-6H (coating concentration not stated); secondary Mouse Anti-Human IgG, F(ab')2.
Experiment [5] has as its target Porphyromonas gingivalis strain W83 whole cells (surface gingipain/adhesin/hemagglutinin complex).
Experiment [6] addresses P. gingivalis laboratory strains, serotypes and human clinical isolates (whole cells). Kind of experiment: immunogold SEM.
Experiment [7] has as its target Porphyromonas gingivalis strain W83 whole cells (surface gingipain/adhesin/hemagglutinin complex). Kind of experiment: scanning electron microscopy, gold-labelled KB001.
The target in experiment [8] is HRgpA-6H (Porphyromonas gingivalis) (UniProt P28784). Description: ELISA, Fab FASEBA supernatant on coated HRgpA-6H (0.0625 ug/ml).
The target is the same in experiment [9]. Kind of experiment: ELISA, HRgpA-6H coated 1 ug/ml; mouse Fab FASEBA supernatant; Goat Anti-MOUSE IgG (Fab specific) [HRP].
The target is the same in experiment [10]. Description: ELISA, HRgpA-6H coated 2 ug/ml; mouse Fab FASEBA supernatant; Goat Anti-MOUSE IgG (Fab specific) [HRP].
For experiment [11] the target is unchanged. Kind of experiment: ELISA, HRgpA-6H coated 0.5 ug/ml; mouse Fab FASEBA supernatant; Goat Anti-MOUSE IgG (Fab specific) [HRP].
Experiment [12] shares this target. Kind of experiment: ELISA, HRgpA-6H coated 0.25 ug/ml; mouse Fab FASEBA supernatant; Goat Anti-MOUSE IgG (Fab specific) [HRP].
Experiment [13] shares this target. Description: ELISA, HRgpA-6H coated 0.125 ug/ml; mouse Fab FASEBA supernatant; Goat Anti-MOUSE IgG (Fab specific) [HRP].
The target is the same in experiment [14]. Description: ELISA, HRgpA-6H coated 0.0625 ug/ml; mouse Fab FASEBA supernatant; Goat Anti-MOUSE IgG (Fab specific) [HRP].

Where “and” joins values, the source holds several entries; their conditions need not be identical. Identical values can stand only once.

Chain of UniProt P28784 (P28784 228-991 limits assumed): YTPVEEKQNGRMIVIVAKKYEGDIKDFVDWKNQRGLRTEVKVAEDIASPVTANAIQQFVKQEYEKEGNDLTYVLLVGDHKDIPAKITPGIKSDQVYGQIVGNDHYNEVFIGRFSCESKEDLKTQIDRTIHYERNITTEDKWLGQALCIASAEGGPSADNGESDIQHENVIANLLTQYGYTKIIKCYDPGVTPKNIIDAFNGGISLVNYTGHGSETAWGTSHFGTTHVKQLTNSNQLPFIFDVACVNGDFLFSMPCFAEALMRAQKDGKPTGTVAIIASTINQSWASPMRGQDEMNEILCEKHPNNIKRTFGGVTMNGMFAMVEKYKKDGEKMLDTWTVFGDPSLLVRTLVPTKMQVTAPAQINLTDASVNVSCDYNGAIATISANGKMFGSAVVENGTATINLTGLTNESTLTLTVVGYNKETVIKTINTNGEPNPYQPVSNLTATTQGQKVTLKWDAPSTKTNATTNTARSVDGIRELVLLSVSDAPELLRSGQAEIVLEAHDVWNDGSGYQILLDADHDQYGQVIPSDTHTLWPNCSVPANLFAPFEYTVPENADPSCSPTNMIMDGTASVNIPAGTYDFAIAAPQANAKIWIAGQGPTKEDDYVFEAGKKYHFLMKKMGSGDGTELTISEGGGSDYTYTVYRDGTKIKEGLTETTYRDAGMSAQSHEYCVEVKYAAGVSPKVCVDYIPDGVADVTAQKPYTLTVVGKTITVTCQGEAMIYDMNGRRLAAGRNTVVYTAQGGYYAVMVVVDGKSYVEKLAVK

In the case of “non-related FASEBA supernatant (NC) (Fab)”, the OD450 in experiment [1] is 1.09; in experiment [2], 1.15 and 0.736; in [3], 0.672; in experiment [4], 0.552 and 0.288.

B1: KB001 (antibody, V domains shown)
VH: EVQLKQSGPGLVAPSQSLSITCTVSGFSLSIYSVHWVRQPPGKGLEWLGMIWGGGSSDYNSALKSRLSISKDNSKSQVFLKMNSLQTDDTAMYYCARNGNFYAMDYWGQGTSVTVSS
VL: QIVLTQSPAIMSASLGERVTMTCTASSSVSSSFLHWYQQKPGSSPQLWIYSTSNLASGVPARFSGSGSGTSYSLTISSMEAEDAATYYCHQYHHSPYIYTFGGGTKLEIKR
A word on the Kd: it is the equilibrium constant for the complex coming apart. High values mean weaker binding, low ones tighter binding. The term koff denotes the rate constant with which the complex falls apart. As usually defined, the kon is the rate constant with which the complex forms. A high value points to fast association. Regarding B1, in experiment [5], the dissociation constant (Kd) stood at 11.4 nM; the Response is 0.216 and 0.186 and 0.297; the koff was 0.000219 s⁻¹; the kon came to 19200 M⁻¹ s⁻¹. Further, the average labeled density in [6] was 50 µm^-2. For the same molecule, in experiment [7], the IgG molecules bound per bacteria (molecules per bacterium) was 60 and 80.

B2: KB001 parental mouse Fab VH variant Y106D (Fab, V domains shown)
VH: EVQLKQSGPGLVAPSQSLSITCTVSGFSLSIYSVHWVRQPPGKGLEWLGMIWGGGSSDYNSALKSRLSISKDNSKSQVFLKMNSLQTDDTAMYYCARNGNFYAMDDWGQGTSVTVSS
VL: QIVLTQSPAIMSASLGERVTMTCTASSSVSSSFLHWYQQKPGSSPQLWIYSTSNLASGVPARFSGSGSGTSYSLTISSMEAEDAATYYCHQYHHSPYIYTFGGGTKLEIK
On to B2, for which, in experiment [8], the OD450nm worked out at 0.675 and the Ratio OD(Variant)/OD(WT) is 0.878.

B3: KB001 parental mouse Fab VH variant Y106K (Fab, V domains shown)
VH: EVQLKQSGPGLVAPSQSLSITCTVSGFSLSIYSVHWVRQPPGKGLEWLGMIWGGGSSDYNSALKSRLSISKDNSKSQVFLKMNSLQTDDTAMYYCARNGNFYAMDKWGQGTSVTVSS
VL: QIVLTQSPAIMSASLGERVTMTCTASSSVSSSFLHWYQQKPGSSPQLWIYSTSNLASGVPARFSGSGSGTSYSLTISSMEAEDAATYYCHQYHHSPYIYTFGGGTKLEIK
Take B3: in experiment [8], the OD450nm is 0.767 and the Ratio OD(Variant)/OD(WT) was 0.997.

B4: KB001 parental mouse Fab VH variant Y106Q (Fab, V domains shown)
VH: EVQLKQSGPGLVAPSQSLSITCTVSGFSLSIYSVHWVRQPPGKGLEWLGMIWGGGSSDYNSALKSRLSISKDNSKSQVFLKMNSLQTDDTAMYYCARNGNFYAMDQWGQGTSVTVSS
VL: QIVLTQSPAIMSASLGERVTMTCTASSSVSSSFLHWYQQKPGSSPQLWIYSTSNLASGVPARFSGSGSGTSYSLTISSMEAEDAATYYCHQYHHSPYIYTFGGGTKLEIK
B4: in experiment [8], the OD450nm was found to be 0.768 and the Ratio OD(Variant)/OD(WT) was determined as 0.999.

B5: KB001 parental mouse Fab VH variant Y106W (Fab, V domains shown)
VH: EVQLKQSGPGLVAPSQSLSITCTVSGFSLSIYSVHWVRQPPGKGLEWLGMIWGGGSSDYNSALKSRLSISKDNSKSQVFLKMNSLQTDDTAMYYCARNGNFYAMDWWGQGTSVTVSS
VL: QIVLTQSPAIMSASLGERVTMTCTASSSVSSSFLHWYQQKPGSSPQLWIYSTSNLASGVPARFSGSGSGTSYSLTISSMEAEDAATYYCHQYHHSPYIYTFGGGTKLEIK
Turning to B5, in experiment [8], the OD450nm was 0.733 and 0.748; the Ratio OD(Variant)/OD(WT) is 0.953 and 0.973.

B6: parental mouse Fab FASEBA sample (Fab, V domains shown)
VH: EVQLKQSGPGLVAPSQSLSITCTVSGFSLSIYSVHWVRQPPGKGLEWLGMIWGGGSSDYNSALKSRLSISKDNSKSQVFLKMNSLQTDDTAMYYCARNGNFYAMDYWGQGTSVTVSS
VL: QIVLTQSPAIMSASLGERVTMTCTASSSVSSSFLHWYQQKPGSSPQLWIYSTSNLASGVPARFSGSGSGTSYSLTISSMEAEDAATYYCHQYHHSPYIYTFGGGTKLEIKR
B6: the OD450 in [9] was 1.94 and 2.02; in [10] it was 2.04 and 1.98; in [11], 1.76 and 1.82; in experiment [12], 1.58 and 1.51; in [13] it was 1.17 and 1.13; in [14], 0.755 and 0.687.

B7: KB001 parental mouse Fab VH variant Y106I (Fab, V domains shown)
VH: EVQLKQSGPGLVAPSQSLSITCTVSGFSLSIYSVHWVRQPPGKGLEWLGMIWGGGSSDYNSALKSRLSISKDNSKSQVFLKMNSLQTDDTAMYYCARNGNFYAMDIWGQGTSVTVSS
VL: QIVLTQSPAIMSASLGERVTMTCTASSSVSSSFLHWYQQKPGSSPQLWIYSTSNLASGVPARFSGSGSGTSYSLTISSMEAEDAATYYCHQYHHSPYIYTFGGGTKLEIK
B7: in experiment [8], the OD450nm was 0.73 and 0.728 and 0.764; the Ratio OD(Variant)/OD(WT) was 0.949 and 0.947 and 0.993.

B8: KB001 parental mouse Fab VH variant Y106H (Fab, V domains shown)
VH: EVQLKQSGPGLVAPSQSLSITCTVSGFSLSIYSVHWVRQPPGKGLEWLGMIWGGGSSDYNSALKSRLSISKDNSKSQVFLKMNSLQTDDTAMYYCARNGNFYAMDHWGQGTSVTVSS
VL: QIVLTQSPAIMSASLGERVTMTCTASSSVSSSFLHWYQQKPGSSPQLWIYSTSNLASGVPARFSGSGSGTSYSLTISSMEAEDAATYYCHQYHHSPYIYTFGGGTKLEIK
With B8, in experiment [8], the OD450nm was determined as 0.722 and the Ratio OD(Variant)/OD(WT) was found to be 0.939.

B9: KB001 parental mouse Fab VH variant M104L (Fab, V domains shown)
VH: EVQLKQSGPGLVAPSQSLSITCTVSGFSLSIYSVHWVRQPPGKGLEWLGMIWGGGSSDYNSALKSRLSISKDNSKSQVFLKMNSLQTDDTAMYYCARNGNFYALDYWGQGTSVTVSS
VL: QIVLTQSPAIMSASLGERVTMTCTASSSVSSSFLHWYQQKPGSSPQLWIYSTSNLASGVPARFSGSGSGTSYSLTISSMEAEDAATYYCHQYHHSPYIYTFGGGTKLEIK
For the molecule B9, in experiment [8], the OD450nm came out at 0.786 and the Ratio OD(Variant)/OD(WT) amounted to 0.904.

B10: KB001 parental mouse Fab (WT) (Fab, V domains shown)
VH: EVQLKQSGPGLVAPSQSLSITCTVSGFSLSIYSVHWVRQPPGKGLEWLGMIWGGGSSDYNSALKSRLSISKDNSKSQVFLKMNSLQTDDTAMYYCARNGNFYAMDYWGQGTSVTVSS
VL: QIVLTQSPAIMSASLGERVTMTCTASSSVSSSFLHWYQQKPGSSPQLWIYSTSNLASGVPARFSGSGSGTSYSLTISSMEAEDAATYYCHQYHHSPYIYTFGGGTKLEIK
For the molecule B10, in experiment [8], the OD450nm is 0.831 and the Ratio OD(Variant)/OD(WT) is 0.956.

B11: KB001 parental mouse Fab VH variant M104V (Fab, V domains shown)
VH: EVQLKQSGPGLVAPSQSLSITCTVSGFSLSIYSVHWVRQPPGKGLEWLGMIWGGGSSDYNSALKSRLSISKDNSKSQVFLKMNSLQTDDTAMYYCARNGNFYAVDYWGQGTSVTVSS
VL: QIVLTQSPAIMSASLGERVTMTCTASSSVSSSFLHWYQQKPGSSPQLWIYSTSNLASGVPARFSGSGSGTSYSLTISSMEAEDAATYYCHQYHHSPYIYTFGGGTKLEIK
As to B11, in experiment [8], the OD450nm was 0.654 and the Ratio OD(Variant)/OD(WT) was 0.85.

B12: KB001 parental mouse Fab VH variant A103C (Fab, V domains shown)
VH: EVQLKQSGPGLVAPSQSLSITCTVSGFSLSIYSVHWVRQPPGKGLEWLGMIWGGGSSDYNSALKSRLSISKDNSKSQVFLKMNSLQTDDTAMYYCARNGNFYCMDYWGQGTSVTVSS
VL: QIVLTQSPAIMSASLGERVTMTCTASSSVSSSFLHWYQQKPGSSPQLWIYSTSNLASGVPARFSGSGSGTSYSLTISSMEAEDAATYYCHQYHHSPYIYTFGGGTKLEIK
For B12, in experiment [8], the OD450nm was 0.77 and the Ratio OD(Variant)/OD(WT) worked out at 0.893.
